In the nanobody polyreactivity screen of Harvey et al. (2022):

Assay: yeast display, Sf9 membrane polyspecificity reagent, FACS + sequencing; frameworks hold sequencing errors
Procedure, shortened: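 Genes from sorted yeast were amplified by colony PCR, read by MiSeq 2 × 250 sequencing and filtered on CDR length. These cells carried a synthetic nanobody library in Saccharomyces cerevisiae BJ5465 and were sorted by FACS into low and high (top ~1%) gates on anti-HA and streptavidin fluorescence. Polyreactivity is labelled according to the gate of origin.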

Sequence | polyreactivity (PSR sort gate)
QVQLVESGGGLDQAGGSLRLSCAASGSIFPFYAMGWYRQAPGKERELVAAISDRGGSTYYADSVKGRFTISRDNAKNSVYLQMNSLKPEATAVYYCAKGGEVSQGYTDEYDYWGQGTQVTVSS | low polyreactivity
QVQLVESGGGLDQAGGSLRLSCAASGSIISGYAMGWYRQAPGKERELVAAISSSGGRTYYADSVKGRFTISRDNAKNTVYLQMNSLKPEDTAVYYCNARQFSRYDYNYWGQGTQETVSS | high polyreactivity
QVQLVESGGGLDQAGGSLRLSCAASGSIYNRYAMGWYRQAPGKERELVADISSGGGTSYADSVKGRFTISRDNAKNTVYLQMNSLKPEDTAVYYCAAELYYWTYVRFDYWGQGTQVTVSS | high polyreactivity
QVQLVESGGGLDQAGGSLRLSCAASGSIYYTAMGWYRQAPGKERELVASISTGDSTDYADSVKGRFTISRDNAKNTVYLQMNSLKPEDTAVYYCAADTRLGYWDDYWGQGTQVTVSS | low polyreactivity
QVQLVESGGGLDQAGGSLRLSCAASGSNFSGWYTMGWYRQAPGKERELVASISISTTDTYYADSVKGRFTISRDNAKKTVYVQMNSLKPEDTAVYYCAAYGWDHVIVEYDYWGQGTQVTVSS | low polyreactivity
QVQLVESGGGLDQAGGSLRLSCAASGSTFDTYAMGGYRQAPGKERELVAAISVSGTSTSYADSVKGRFTISRDNAKNTVYLQMNILNPEDTAVYYCIATDFSRNPGYARPEYDYWGQGTQVTVSS | low polyreactivity
QVQLVESGGGLDQAGGSLRLSCAASGSTFGGNAMGWYRQAPGKERELVAAISGGDRTNYADSVKGRFTISRDNAKNSVYLQMNSLKPEDTAVYYCAADAGYWDLRSGIYKEDYWGQGTQVTVSS | low polyreactivity
QVQLVESGGGLDQAGGSLRLSCAASGSTFRRYAMGWYRQAPGKERELVAAITGSGGRTYYADSVKGRFTISRDNAKNTVYLQMNSLKPEDTAVYYCNAVSYIDYSRARIRYEYWGQGTQVTVSS | high polyreactivity
QVQLVESGGGLDQAGGSLRLSCAASGSTFTSYDMGWYIQAPGKERELVAAITISSGGTYYADSVKGRFTISRDTAKNTVYLQMNSLKPEDTEVYYCAADIFADASYDYWGLGTQVTVSS | low polyreactivity
QVQLVESGGGLDQAGGSLRLSCAASGSTFVGYAMGWYRQAPGKERELVAAISQSDVSTYYADSVKGRFTISRDNAKNTVYLQMNSLKPEDTAVYYCAADRGGLRWFWQVLYDYWGQGTQVTVSS | low polyreactivity
QVQLVESGGGLDQAGGSLRLSCAASGSTSAYYVMGWYRQAPGKERELVAAIDFSGDSTYYADSVKGRFTISRDNAKNTVYLQMISLKPEDSAVYYCAAELFFYSSLVTYEYWGQGTQVTVSS | high polyreactivity
QVQLVESGGGLDQAGGSLRLSCAASGSTSLSYAMGWYRQAPGKERELVAAISRGGSTTYADSVKGRFTISRDNAKNPVYFQMKSLKPVDTAVYYCAVGYDIVRYSYSPFYRYDYWGQGTQVTVSS | low polyreactivity
QVQLVESGGGLDQAGGSLRLSCAASGSTYPGNAMGWYRQAPGKERELVAAIDSSTGSTYYADSVKGRFTISRDHAKNTVYLQMNSLKPEDNAVYYCNKTSFLVKLDYWGLGTQVTVSS | low polyreactivity
QVQLVESGGGLDQAGGSLRLSCAASGSTYSYYAMGWYRQAPGKERELVAAISRSGGSTYYADSVKGRFTISRDNAKNTVYLQMNCMKPEDTAVYYCAARGQYRYSFGDYSWGQGTQVTVSS | high polyreactivity
QVQLVESGGGLDQAGGSLRLSCAASGYTLGDYAMGWYRQAPGKERELVAVITRNGGRTYYADSVKGRFTISRDNAKNTVFLQMNSLKPEDTAVYYCNRDTSIRDYNYWGQGTQVTVSS | high polyreactivity
QVQLVESGGGLDQAGGSLRLSCAASGYTYLRNAMGWSRQAPGKERELVAAISYSGGGTYYADSVKGRFTISRDNAKNTVYLQMHSLKPEDTAVYYCAADRGGLRWFWQVLYDYWGQGTQVTVSS | low polyreactivity
QVQLVESGGGLDQAGGSLRLSCAAYGSTFTYQSMGWYRQATGKERELVAAITWSSDITYYADSVKGRFTISRDNAKSTVYLQMNSLKPEDTAVYYCAADGVTRDYVYWGQGTQVTVSS | low polyreactivity
QVQLVESGGGLDQAGGSLRLSCAPSGFIFIRNAMGWYRQAPGKDRELVAAISSGGRTYYADSVKGRFTISRDNAKNTVYLQMNSLKPEDTAVDYCATRPHRPRGQSVGQYDDWGQGTQVTVSS | high polyreactivity
QVQLVESGGGLDQAGGSLRLSCAPSGSIFGSYAMGWYRQAPGKERELVAAIRRSSASTYYADSVKGRFTISRDNAKNTVYLQMNSLKPEDTAVYYCATQSYSDYGYRYRYAAYDYWGQGTQVTVSS | high polyreactivity
QVQLVESGGGLDQAGGSLRLSCAPSGSIVRYAMGWYRPAPGKERELVAAISSSGGSTYYADSVKGRFTISRDNAKNTFYLQMNRLKPADTAVYYCAKRIVQASVAAYYYWGQGPQVTVSS | high polyreactivity
QVQLVESGGGLDQAGGSLRLSCPASAITFQLYAKGWYRQAPGKERELVAAISRSGSGTYYADSVKGRFTISRDNAKNTVYLQMHSLKPEDTAVYYCAALGPGYYWGQGTQVTVSS | high polyreactivity
